Consider six molecules from patent US20060029603A1 (GlaxoSmithKline, published 2006).

One may read the Kd as a measure of binding affinity in units of concentration. Higher therefore signals weaker binding. What is called koff is the rate constant with which the complex falls apart. What is called kon is a measure of how fast the partners come together. A high value points to faster complex formation. By EC50 (read off the curve) is commonly meant the concentration needed to bring the measured effect to its halfway point. Read a high EC50 (read off the curve) as a need for much substance.

Assay [1] addresses T1, GST-human NOGO-A56 (human, UniProt P08515 1-218 = GST).
T1 construct: GST-tagged fusion expressed in E. coli BL21 and purified on glutathione-sepharose; coated on ELISA plates or amine-coupled to a CM5 chip; also called hNOGO; recombinant human NOGO
Briefly: SPR (Biacore 3000), GST-human NOGO-A56 on CM5, antibody as analyte; single experiment. Here is the method: (§1) The binding kinetics of the anti-NOGO monoclonal antibody (mAb) to recombinantly expressed human NOGO-A (GST-human NOGO-A56) was analysed using the Biacore3000 biosensor. The hNOGO-A chip was prepared as follows:
(§2) hNOGO (GST-human NOGO-A56) was immobilised to a CM5 chip by primary amine coupling using the Biacore Wizard program designed for targeted immobilisation levels. The CM5 sensor surface was activated by passing a solution of 50 mM N-hydroxy-succinimide (NHS) and 200 mM N-ethyl-N′-dimethylaminopropyl […] (EDC). Then hNOGO in sodium acetate buffer, pH5.0 or pH 4.5, was passed over the chip and immobilised. After immobilisation was complete any still activated esters were blocked by an injection of 1M ethanolamine hydrochloride, pH8.5.
(§3) The anti-NOGO mAbs were diluted down in HBS-EP (10 mM HEPES, pH 7.4, 150 mM NaCl, 3 mM EDTA, and 0.005% P-20 surfactant) and binding studies were carried out at range of defined antibody concentrations. All runs were referenced against a blanked sensor surface (one that had been activated and blocked as described earlier but had no addition of ligand). Analysis of binding was carried out using the BIAevaluation kinetic analysis software version 4.1. Biacore analysis of other antibodies of the invention essentially followed the same protocol as described herein.

Assay [2] addresses T1, GST-human NOGO-A56. Briefly: SPR (Biacore 3000), GST-human NOGO-A56 on CM5, antibody as analyte; mean (SD) of two experiments. As to the method: as §2, §3
For assay [3], the target named is T1, GST-human NOGO-A56. In words: ELISA, coated GST-human NOGO-A56, transfection supernatant, anti-human kappa-HRP, OD 490 nm. Here is the method:
(§4) GST-human NOGO-A56 (SEQ ID: 76) at 1 μg/ml in PBS was coated onto Nunc Immunosorp plates (100 μl per well) at 4° C. overnight. Wells were rinsed once with TBS+0.05% Tween (TBST) then incubated with 2% BSA in TBST to block non-specific binding sites at room temperature for 1 hour. Antibodies were diluted in TBST+2% BSA to 10 μg/ml and 1/2 dilutions made from this. Antibodies were added to wells in duplicate and incubated at room temperature for 1 hour. Wells were washed three times with TBST then incubated with anti-human kappa peroxidase conjugate (1:2000) for 1 hour. The wells were washed three times with TBST and then incubated with 100 μl OPD peroxidase substrate (Sigma) per well for 10 minutes. The colour reaction was stopped by the addition of 25 μl concentrated H₂SO₄. Optical density at 490 nm was measured using a plate reader. Background values read from wells with no antibody were subtracted.
(An ELISA detects its analyte on a solid surface through an enzyme-linked reagent.)

Assay [4] deals with T1, GST-human NOGO-A56. The assay is described as above. Here is the method:
as §4
This is another data set of the same source.

The target of assay [5] is T1, GST-human NOGO-A56. Described as above. As to the method: as §4
This is another data set of the same source.

Assay [6] concerns the target T1, GST-human NOGO-A56. The description is as above. Here is the method: as §4
This is another data set of the same source.

Assay [7] has as its target T1, GST-human NOGO-A56. Described as above. Here is the method: as §4
This is another data set of the same source.

The target in assay [8] is T1, GST-human NOGO-A56. In words: SPR (Biacore 3000), GST-human NOGO-A56 amine-coupled to CM5, antibody as analyte; mean (SD) of four experiments. Here is the method: as §1, §2, §3
On the technique in general: SPR reads the build-up and loss of mass on a sensor chip optically.

Assay [9] deals with T1, GST-human NOGO-A56. Briefly: SPR (Biacore) off-rate ranking, CHO-K1 transient supernatant over GST-human NOGO-A56 chip; mean (SD) of two runs. As to the method:
as §2
(§5) The hNOGO chip was prepared as for kinetic analysis. Cell supernatants where taken directly from transient transfections of CHO-K1 cells. These were passed directly over the sensor surface and the interaction measured. A mock transfected cell supernatant was used for double referencing to remove any artefacts due to the tissue culture media. All runs were referenced against a blanked sensor surface (one that had been activated and blocked as described earlier but had no addition of ligand). Analysis of binding was carried out using the BIAevaluation kinetic analysis software version 4.1.

Assay [10] has as its target T1, GST-human NOGO-A56. In words: SPR (Biacore) off-rate ranking, CHO-K1 transient supernatant over GST-human NOGO-A56 chip; single experiment. Here is the method:
as §2, §5

The target in assay [11] is T1, GST-human NOGO-A56. Briefly: SPR (Biacore 3000), GST-human NOGO-A56 on CM5, antibody as analyte; mean (SD) of two experiments; mean (SD) of two separate experiments. As to the method: as §2, §3
In assay [12] the target is T1, GST-human NOGO-A56. Briefly: SPR (BiaCore kinetic analysis), human NOGO.
The target of assay [13] is T1, GST-human NOGO-A56. Briefly: ELISA, coated GST-human NOGO-A56, transfection supernatant, anti-human kappa-HRP, OD 490 nm. As to the method: as §4
This is another data set of the same source.

Assay [14] deals with T1, GST-human NOGO-A56. The assay is described as above. As to the method:
as §4
The source holds these as a separate data set.

The target of assay [15] is T1, GST-human NOGO-A56. Briefly: SPR (Biacore) off-rate ranking, CHO-K1 transient supernatant over GST-human NOGO-A56 chip; mean (SD) of three runs. Here is the method:
as §2, §5

Where two headings read alike, the source gives them in different places.

T1 sequence (P08515 1-218, tags or fused parts left off): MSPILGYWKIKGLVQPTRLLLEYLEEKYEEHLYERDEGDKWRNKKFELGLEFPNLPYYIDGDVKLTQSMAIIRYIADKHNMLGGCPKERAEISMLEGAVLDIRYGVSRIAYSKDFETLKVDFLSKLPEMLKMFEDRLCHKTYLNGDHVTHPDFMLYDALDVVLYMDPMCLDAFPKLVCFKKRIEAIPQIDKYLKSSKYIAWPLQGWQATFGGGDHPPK

B1: HcLc (chimera of 2A10: murine 2A10 VH and VL with human IgG constant regions) (antibody, V domains shown)
VH: QVQLQQPGTELVKPGASVKLSCKASGYTFTSYWMHWVKQRPGQGLEWIGNINPSNGGTNYNEKFKSKATLTVDKSSSTAYMQLSSLTSEDSAVYYCELGQGYWGQGTLVTVSS
VL: DIVITQDELSNPVTSGESVSISCRSSKSLLYKDGKTYLNWFLQRPGQSPQLLIYLMSTRASGVSDRFSGSGSGTDFTLEISRVKAEDVGVYYCQQLVEYPLTFGAGTKLELKR
notes: Human gamma1 mutated constant region and human kappa; also called 2A10 chimeric antibody; the chimera
For B1, the Kd was 1.6 nM with GST-human NOGO-A56 [1], 0.995 nM with GST-human NOGO-A56 [2] and 1.41 nM with GST-human NOGO-A56 [8]. In addition, the koff is 0.00412 s⁻¹ with GST-human NOGO-A56 [1], 0.00346 s⁻¹ with GST-human NOGO-A56 [2], 0.00378 s⁻¹ with GST-human NOGO-A56 [8] and 0.00376 s⁻¹ with GST-human NOGO-A56 [9]. Moreover, the figures for the kon in the assay with GST-human NOGO-A56 [1], with GST-human NOGO-A56 [2] and in the assay with GST-human NOGO-A56 [8] were 2.62e+06 M⁻¹ s⁻¹, 3.52e+06 M⁻¹ s⁻¹ and 2.7e+06 M⁻¹ s⁻¹, respectively. For the same molecule, the “EC50 (read off the curve)” value with GST-human NOGO-A56 [3] is roughly 0.09 µg/mL; with GST-human NOGO-A56 [4], roughly 0.2 µg/mL; with GST-human NOGO-A56 [5], roughly 0.2 µg/mL; with GST-human NOGO-A56 [6], roughly 0.05 µg/mL; in the assay with GST-human NOGO-A56 [7], roughly 0.02 µg/mL.

B2: H6L18 (antibody, human IgG1, kappa, V domains shown)
VH: QVQLVQSGAEVKKPGASVKVSCKASGYTFTSYWMHWVRQAPGQGLEWIGNINPSNGGTNYNEKFKSRATMTRDTSTSTAYMELSSLRSEDTAVYYCELGQGYWGQGTLVTVSS
VL: DIVMTQDPLSNPVTLGQPVSISCRSSKSLLYKDGKTYLNWFLQRPGQSPQLLIYLMSTRASGVSDRFSGSGSGTDFTLKISRVEAEDVGVYYCQQLVEYPLTFGQGTKLEIKR
notes: Tested as CHO-K1 supernatant
With B2, the “EC50 (read off the curve)” value with GST-human NOGO-A56 [4] is roughly 0.5 µg/mL; in the assay with GST-human NOGO-A56 [5], roughly 0.4 µg/mL. The same molecule yielded a koff with GST-human NOGO-A56 [10] of 0.0106 s⁻¹.

B3: H6Lc (antibody, human IgG1, kappa, V domains shown)
VH: QVQLVQSGAEVKKPGASVKVSCKASGYTFTSYWMHWVRQAPGQGLEWIGNINPSNGGTNYNEKFKSRATMTRDTSTSTAYMELSSLRSEDTAVYYCELGQGYWGQGTLVTVSS
VL: DIVITQDELSNPVTSGESVSISCRSSKSLLYKDGKTYLNWFLQRPGQSPQLLIYLMSTRASGVSDRFSGSGSGTDFTLEISRVKAEDVGVYYCQQLVEYPLTFGAGTKLELKR
notes: Humanised heavy chain H6 paired with chimeric light chain Lc; The pairing is read from the name
In the assay with GST-human NOGO-A56 [2], B3 registered a koff of 0.00284 s⁻¹ and a kon of 2.17e+06 M⁻¹ s⁻¹. In the assay with GST-human NOGO-A56 [11], binding was characterised by a dissociation constant (Kd) of 2.21 nM.

B4: murine monoclonal antibody 2A10 (antibody, V domains shown)
VH: QVQLQQPGTELVKPGASVKLSCKASGYTFTSYWMHWVKQRPGQGLEWIGNINPSNGGTNYNEKFKSKATLTVDKSSSTAYMQLSSLTSEDSAVYYCELGQGYWGQGTTLTVSS
VL: DIVITQDELSNPVTSGESVSISCRSSKSLLYKDGKTYLNWFLQRPGQSPQLLIYLMSTRASGVSDRFSGSGSGTDFTLEISRVKAEDVGVYYCQQLVEYPLTFGAGTKLELK
notes: Murine antibody; also called donor antibody
In the assay with GST-human NOGO-A56 [12], B4 came in with a dissociation constant Kd of roughly 1 nM and a koff of roughly 0.00184 s⁻¹.

B5: H16L16 (antibody, human IgG1, kappa)
heavy: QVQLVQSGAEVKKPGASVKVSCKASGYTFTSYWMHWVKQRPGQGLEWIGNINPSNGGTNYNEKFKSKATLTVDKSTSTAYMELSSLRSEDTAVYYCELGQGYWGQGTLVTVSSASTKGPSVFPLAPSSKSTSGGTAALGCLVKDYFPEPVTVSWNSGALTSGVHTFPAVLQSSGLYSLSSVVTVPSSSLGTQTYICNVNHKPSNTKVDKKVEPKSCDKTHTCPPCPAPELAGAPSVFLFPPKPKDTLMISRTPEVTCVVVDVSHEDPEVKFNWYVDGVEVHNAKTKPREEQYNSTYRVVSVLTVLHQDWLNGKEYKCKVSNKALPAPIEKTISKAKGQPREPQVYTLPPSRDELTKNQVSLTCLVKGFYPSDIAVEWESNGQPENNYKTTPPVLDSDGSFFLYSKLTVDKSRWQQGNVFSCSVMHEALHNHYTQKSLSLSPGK
light: DIVMTQSPLSNPVTLGQPVSISCRSSKSLLYKDGKTYLNWFLQRPGQSPQLLIYLMSTRASGVPDRFSGGGSGTDFTLKISRVEAEDVGVYYCQQLVEYPLTFGQGTKLEIKRTVAAPSVFIFPPSDEQLKSGTASVVCLLNNFYPREAKVQWKVDNALQSGNSQESVTEQDSKDSTYSLSSTLTLSKADYEKHKVYACEVTHQGLSSPVTKSFNRGEC
notes: Humanised 2A10; Human gamma1 mutated constant region and human kappa; also called H16L16 FL
Turning to B5, the Kd with GST-human NOGO-A56 [1] is 1 nM; with GST-human NOGO-A56 [8] it was 1.26 nM. For the same molecule, the off-rate constant (koff) in the assay with GST-human NOGO-A56 [1] worked out at 0.00569 s⁻¹; with GST-human NOGO-A56 [8] it was 0.00554 s⁻¹; with GST-human NOGO-A56 [15] it was 0.00664 s⁻¹. The kon was 5.47e+06 M⁻¹ s⁻¹ with GST-human NOGO-A56 [1] and 4.37e+06 M⁻¹ s⁻¹ with GST-human NOGO-A56 [8]. Moreover, the “EC50 (read off the curve)” value with GST-human NOGO-A56 [7] was roughly 0.04 µg/mL; with GST-human NOGO-A56 [13] it was roughly 0.06 µg/mL; with GST-human NOGO-A56 [14], roughly 0.06 µg/mL.

B6: H18L16 (antibody, human IgG1, kappa, V domains shown)
VH: QVQLVQSGAEVVKPGASVKLSCKASGYTFTSYWMHWVKQRPGQGLEWIGNINPSNGGTNYNEKFKSKATLTVDKSSSTAYMELSSLRSEDSAVYYCELGQGYWGQGTLVTVSS
VL: DIVMTQSPLSNPVTLGQPVSISCRSSKSLLYKDGKTYLNWFLQRPGQSPQLLIYLMSTRASGVPDRFSGGGSGTDFTLKISRVEAEDVGVYYCQQLVEYPLTFGQGTKLEIKR
notes: Humanised 2A10; also called H18L16 FL
With B6, the entries for the “EC50 (read off the curve)” value with GST-human NOGO-A56 [4], with GST-human NOGO-A56 [5] and in the assay with GST-human NOGO-A56 [14] were roughly 0.4 µg/mL, roughly 0.4 µg/mL and roughly 0.04 µg/mL, respectively. The molecule further showed a Kd with GST-human NOGO-A56 [8] of 1.62 nM. For the same molecule, the results for the koff with GST-human NOGO-A56 [8] and in the assay with GST-human NOGO-A56 [9] were 0.00586 s⁻¹ and 0.00687 s⁻¹, respectively. The kon with GST-human NOGO-A56 [8] turned out to be 3.64e+06 M⁻¹ s⁻¹.
